From PMC7615117, “DNSN-1 recruits GINS for CMG helicase assembly during DNA replication initiation in C. elegans” (Science (New York, N.Y.), 2023) come the findings set out here.

Broadly, the stoichiometry N is the number of molecules, sites or subunits per partner or assembly.

Assay in all cases: cryo-EM structure; CMG (125 nM) with fork DNA, AMP-PNP, TIM-1/TIPN-1 and DNSN-1 isoform c (each 1.3-fold molar excess), GraFix gradient with glutaraldehyde and BS3
For experiment [1], the target named is recombinant C. elegans DNSN-1 (C. elegans).
Experiment [2] deals with T1, MCM-3 (C. elegans, UniProt Q9XVR7 1-812).
T1 construct: MCM-3, C. elegans; Subunit of m11, written alone for its contacts in the structure; also called MCM-3 subunit of MCM-2-7; source: S. cerevisiae, purified as part of recombinant CMG
T1 sequence: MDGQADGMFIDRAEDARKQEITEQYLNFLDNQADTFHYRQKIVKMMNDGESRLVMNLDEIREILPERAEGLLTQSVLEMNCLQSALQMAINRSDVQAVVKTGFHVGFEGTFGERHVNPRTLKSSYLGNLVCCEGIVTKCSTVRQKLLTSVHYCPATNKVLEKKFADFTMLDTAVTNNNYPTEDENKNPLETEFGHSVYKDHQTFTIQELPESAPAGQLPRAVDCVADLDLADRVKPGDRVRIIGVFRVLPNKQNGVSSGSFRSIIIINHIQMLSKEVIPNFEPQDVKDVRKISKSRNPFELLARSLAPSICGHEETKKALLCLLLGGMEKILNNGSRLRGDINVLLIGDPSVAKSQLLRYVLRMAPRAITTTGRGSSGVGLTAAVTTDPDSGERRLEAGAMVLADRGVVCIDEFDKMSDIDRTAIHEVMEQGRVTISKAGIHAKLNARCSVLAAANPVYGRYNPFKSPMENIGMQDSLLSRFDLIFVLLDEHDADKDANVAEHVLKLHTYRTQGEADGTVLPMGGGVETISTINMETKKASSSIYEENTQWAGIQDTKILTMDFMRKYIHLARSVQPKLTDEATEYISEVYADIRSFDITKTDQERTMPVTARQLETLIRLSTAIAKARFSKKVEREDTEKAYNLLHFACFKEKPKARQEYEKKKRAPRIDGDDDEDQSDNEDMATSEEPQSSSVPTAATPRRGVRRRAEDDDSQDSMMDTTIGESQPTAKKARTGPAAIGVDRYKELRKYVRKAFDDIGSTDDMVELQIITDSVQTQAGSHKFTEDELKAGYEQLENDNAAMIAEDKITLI
The note with it: both partners purified.

Experiment [3] deals with T2, MCM-4 (C. elegans, UniProt Q95XQ8 1-823).
T2 construct: MCM-4, C. elegans; Subunit of m11, written alone for its interfaces in the structure; source: S. cerevisiae, purified as part of recombinant CMG
T2 sequence: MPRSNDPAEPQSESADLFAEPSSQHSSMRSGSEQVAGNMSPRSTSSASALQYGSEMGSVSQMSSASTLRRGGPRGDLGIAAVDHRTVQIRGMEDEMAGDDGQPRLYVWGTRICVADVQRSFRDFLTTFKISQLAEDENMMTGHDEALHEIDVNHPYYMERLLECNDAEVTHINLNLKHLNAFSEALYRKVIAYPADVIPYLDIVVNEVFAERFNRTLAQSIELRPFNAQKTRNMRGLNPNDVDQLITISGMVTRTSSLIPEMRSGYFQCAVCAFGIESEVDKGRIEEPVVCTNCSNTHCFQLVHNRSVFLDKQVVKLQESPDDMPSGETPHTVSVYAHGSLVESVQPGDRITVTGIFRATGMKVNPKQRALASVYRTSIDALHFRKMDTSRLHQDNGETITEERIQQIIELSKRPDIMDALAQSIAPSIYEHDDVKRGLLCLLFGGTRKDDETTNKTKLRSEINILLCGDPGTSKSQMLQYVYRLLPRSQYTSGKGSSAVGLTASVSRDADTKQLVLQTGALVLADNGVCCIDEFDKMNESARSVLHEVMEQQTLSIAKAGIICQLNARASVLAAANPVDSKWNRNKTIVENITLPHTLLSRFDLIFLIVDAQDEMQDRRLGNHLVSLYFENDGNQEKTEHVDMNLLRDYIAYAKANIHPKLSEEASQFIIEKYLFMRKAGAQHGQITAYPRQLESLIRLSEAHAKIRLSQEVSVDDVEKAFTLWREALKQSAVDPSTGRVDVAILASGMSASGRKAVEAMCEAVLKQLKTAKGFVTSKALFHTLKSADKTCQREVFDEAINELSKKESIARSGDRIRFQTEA
The note with it: both partners purified.

As to “recombinant C. elegans DNSN-1 (natural protein)”, in experiment [1], the stoichiometry N was 2.

B1: MCM-7 (natural protein, C. elegans)
chain: MKTTTYNTDWAAEKTKIRSFFDEYYVDNEDGSGKAFPYRDQVFEIARRDKQAIVVNVDHIKESDIPDALELSEAITSNTKRYEVLFKDTISDMIQDYLGDKQAPVIDALDAYMFQRLHMDRNEGAANEEVSLQDKRKKYPPQLLQRFEVYFTTDDAAHETCVRNIKATEIGHLVSMKGVVIRATEVKPCVEVMTYTCDTCAAEVYQPVKGMQFTPPVNCPNKECVEAKANGRLHMQLRGSKFVKFQELKIQELSEQVPVGSIPRTMTVHVYGEMTRKCNTGNVVHVSGVFLPIMQSGFRPTGGLVADTYLEAHYINNLDDNPTFNGVQSAELEVLRRKGDNYETLAASIAPEIFGHVDVKKCLLMALVGGNDNSSNGMKIRGCINVLMMGDPGVAKSQLLGYVNRLAPRSQYTTGRGSSGVGLTAAVMKDPVTGEMSLEGGALVLADGGICCIDEFDKMMDHDRTAIHEVMEQQTISIAKAGIMTTLNARTAIIAAANPAYGRYNPNRSIEQNVDLPAALLSRFDLILLMQDKADRENDKILAEHITYVHQHGCHPNREKKDLISLETLREYISLCKTYTPTVDPALRERIVEAYVEMRRDARYSSDPTFVSPRMILGIVRMATARAKLRLSTIVDESDVEEALRLMQFAKDSLRPEQNKIEKRMAPVDAAFAVLRELYHADNAPIAISNAIQRCARKGISEVALKKCLDQYTANGLLVMDRQNIVFAMN
notes: MCM-7, C. elegans; Subunit of m11, written alone for its interfaces in the structure; source: S. cerevisiae, purified as part of recombinant CMG
Take B1: the binding result in experiment [2] and in experiment [3] was “binds” in each case.
